Results taken from patent US20050064507.

Experiments:
[1] = target: T1, AF15q14 peptide GFLNEPLSSKSQRRKSLKLK (SEQ ID NO:132) (not fully specified)
T1 chain: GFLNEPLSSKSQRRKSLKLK

[2] = target: T2, ANK1 peptide AQIVKRASLKRGKQ (SEQ ID NO:90) (not fully specified)
T2 chain: AQIVKRASLKRGKQ

[3] = target: T3, ARHGAP6 peptide SAQITIPKDGQKRKKSLRKK (SEQ ID NO:156) (not fully specified)
T3 chain: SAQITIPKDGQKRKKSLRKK

[4] = target: T4, ASIP peptide KKRSSKKEASMKKVVRP (SEQ ID NO:97) (not fully specified)
T4 chain: KKRSSKKEASMKKVVRP

[5] = target: T5, CACNA1C peptide RGFLRSASLGRRASFHLE (SEQ ID NO:96) (not fully specified)
T5 chain: RGFLRSASLGRRASFHLE

[6] = target: T6, DGKI peptide NRKKKRTSFKRKA (SEQ ID NO:79) (not fully specified)
T6 chain: NRKKKRTSFKRKA

[7] = target: T7, GABRB2 peptide QKKSRLRRRASQLKI (SEQ ID NO:84) (not fully specified)
T7 chain: QKKSRLRRRASQLKI

[8] = target: T8, HERG peptide TELEGGFSRQRKRKLSFRRR (SEQ ID NO:140) (not fully specified)
T8 chain: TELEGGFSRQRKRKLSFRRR

[9] = target: T9, Lyp peptide ILRPSKSVKLRS (SEQ ID NO:197) (not fully specified)
T9 chain: ILRPSKSVKLRS

[10] = target: T10, MAP3K14 peptide WKGKRRSKARKKRK (SEQ ID NO:100) (not fully specified)
T10 chain: WKGKRRSKARKKRK

[11] = target: T11, MARCKS peptide KKKRFSFKKSFKLSGFSFKK (SEQ ID NO:111) (not fully specified)
T11 chain: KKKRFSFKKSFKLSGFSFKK

[12] = target: T12, MARCKS peptide KKRFSFKKSFKLSGFSFKKN (SEQ ID NO:123) (not fully specified)
T12 chain: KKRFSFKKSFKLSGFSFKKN

[13] = target: T13, MARCKS peptide PSPSNETPKKKKKRFSFKKS (SEQ ID NO:157) (not fully specified)
T13 chain: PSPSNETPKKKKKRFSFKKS

[14] = target: T14, MAST3 peptide TQDRRKSLFKKI (SEQ ID NO:201) (not fully specified)
T14 chain: TQDRRKSLFKKI

[15] = target: T15, MGC2941 peptide RPTPGDGEKRSRIKKSKKRK (SEQ ID NO:139) (not fully specified)
T15 chain: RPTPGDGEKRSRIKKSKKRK

[16] = target: T16, MLK3 peptide HVRRRRGTFKRSKLRARD (SEQ ID NO:76) (not fully specified)
T16 chain: HVRRRRGTFKRSKLRARD

[17] = target: T17, NIK peptide TEGKMARVAWKGKRRSKARK (SEQ ID NO:164) (not fully specified)
T17 chain: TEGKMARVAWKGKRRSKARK

[18] = target: T18, NIK peptide WKGKRRSKARKKRK (SEQ ID NO:131) (not fully specified)
T18 chain: WKGKRRSKARKKRK

[19] = target: T19, NMDAR1 peptide RAITSTLASSFKRRR (SEQ ID NO:122) (not fully specified)
T19 chain: RAITSTLASSFKRRR

[20] = target: T20, PRKCA peptide RFARKGSLRQKNV (SEQ ID NO:85) (not fully specified)
T20 chain: RFARKGSLRQKNV

[21] = target: T21, SPTBN4 peptide EGGDRRASGRRK (SEQ ID NO:110) (not fully specified)
T21 chain: EGGDRRASGRRK

[22] = target: T22, SYTL4 peptide RQGKRKTSIKRDTVNPL (SEQ ID NO:87) (not fully specified)
T22 chain: RQGKRKTSIKRDTVNPL

[23] = target: T23, ankyrin R peptide DLIEGRKGAQIVKRASLKRG (SEQ ID NO:152) (not fully specified)
T23 chain: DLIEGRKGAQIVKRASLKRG

[24] = target: T24, calcium channel, voltage-dependent, L type, alpha peptide RDIRQSPKRGFLRSASLGRR (SEQ ID NO:147) (not fully specified)
T24 chain: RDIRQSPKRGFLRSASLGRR

[25] = target: T25, cyclophilin G peptide TEEKSKKRKKKHRKNSRKHK (SEQ ID NO:165) (not fully specified)
T25 chain: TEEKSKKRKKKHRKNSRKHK

[26] = target: T26, dag kinase iota peptide NRKKKRTSFKRKA (SEQ ID NO:115) (not fully specified)
T26 chain: NRKKKRTSFKRKA

[27] = target: T27, dag kinase iota peptide NRKKKRTSFKRKA (SEQ ID NO:117) (not fully specified)
T27 chain: NRKKKRTSFKRKA

[28] = target: T28, nuclear RNA export factor 3 peptide VRYTPYTISPYNRKGSFRKQ (SEQ ID NO:143) (not fully specified)
T28 chain: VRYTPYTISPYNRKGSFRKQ

[29] = target: T29, p47phox peptide QAQRQIKRGAPPRRSSIRNA (SEQ ID NO:146) (not fully specified)
T29 chain: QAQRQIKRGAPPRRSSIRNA

[30] = target: T30, pleckstrin 1 peptide KAIKAIEGGQKFARKSTRRS (SEQ ID NO:126) (not fully specified)
T30 chain: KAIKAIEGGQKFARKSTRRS

[31] = target: T31, ribosomal protein S6 peptide AKRRRLSSLRASTSK (SEQ ID NO:120) (not fully specified)
T31 chain: AKRRRLSSLRASTSK

B1: PKC-theta (protein)
chain: MSPFLRIGLSNFDCGSCQSCQGEAVNPYCAVLVKEYVESENGQMYIQKKPTMYPPWDSTFDAHINKGRVMQIIVKGKNVDLISETTVELYSLAERCRKNNGKTEIWLELKPQGRMLMNARYFLEMSDTKDMNEFETEGFFALHQRRGAIKQAKVHHVKCHEFTATFFPQPTFCSVCHEFVWGLNKQGYQCRQCNAAIHKKCIDKVIAKCTGSAINSRETMFHKERFKIDMPHRFKVYNYKSPTFCEHCGTLLWGLARQGLKCDACGMNVHHRCQTKVANLCGINQKLMAEALAMIESTQQARCLRDTEQIFREGPVEIGLPCSIKNEARPPCLPTPGKREPQGISWESPLDEVDKMCHLPEPELNKERPSLQIKLKIEDFILHKMLGKGSFGKVFLAEFKKTNQFFAIKALKKDVVLMDDDVECTMVEKRVLSLAWEHPFLTHMFCTFQTKENLFFVMEYLNGGDLMYHIQSCHKFDLSRATFYAAEIILGLQFLHSKGIVYRDLKLDNILLDKDGHIKIADFGMCKENMLGDAKTNTFCGTPDYIAPEILLGQKYNHSVDWWSFGVLLYEMLIGQSPFHGQDEEELFHSIRMDNPFYPRWLEKEAKDLLVKLFVREPEKRLGVRGDIRQHPLFREINWEELERKEIDPPFRPKVKSPFDCSNFDKEFLNEKPRLSFADRALINSMDQNMFRNFSFMNPGMERLIS
in vitro phosphorylation, 1 uM peptide (% of best substrate) [1]: 34
in vitro phosphorylation, 10 uM peptide (% of best substrate) [1]: 40
in vitro phosphorylation (% of best substrate) [2]: 38
in vitro phosphorylation, 1 uM peptide (% of best substrate) [3]: 18
in vitro phosphorylation, 10 uM peptide (% of best substrate) [3]: 23
in vitro phosphorylation (% of best substrate) [4]: 31
in vitro phosphorylation (% of best substrate) [5]: 21
in vitro phosphorylation (% of best substrate) [6]: 33
in vitro phosphorylation (% of best substrate) [7]: 87
in vitro phosphorylation, 1 uM peptide (% of best substrate) [8]: 25
in vitro phosphorylation, 10 uM peptide (% of best substrate) [8]: 35
in vitro phosphorylation (% of best substrate) [9]: 32
in vitro phosphorylation (% of best substrate) [10]: 56
in vitro phosphorylation (% of best substrate) [11]: 18
in vitro phosphorylation, 1 uM peptide (% of best substrate) [12]: 47
in vitro phosphorylation, 10 uM peptide (% of best substrate) [12]: 32
in vitro phosphorylation, 1 uM peptide (% of best substrate) [13]: 20
in vitro phosphorylation, 10 uM peptide (% of best substrate) [13]: 23
in vitro phosphorylation (% of best substrate) [14]: 25
in vitro phosphorylation, 1 uM peptide (% of best substrate) [15]: 31
in vitro phosphorylation, 10 uM peptide (% of best substrate) [15]: 17
Peptide phosphorylation by PKC-theta [16]: 99
in vitro phosphorylation (% of best substrate) [16]: 100
in vitro phosphorylation, 1 uM peptide (% of best substrate) [17]: 24
in vitro phosphorylation, 10 uM peptide (% of best substrate) [17]: 20
in vitro phosphorylation, 1 uM peptide (% of best substrate) [18]: 53
in vitro phosphorylation, 10 uM peptide (% of best substrate) [18]: 35
in vitro phosphorylation, 1 uM peptide (% of best substrate) [19]: 66
in vitro phosphorylation, 10 uM peptide (% of best substrate) [19]: 42
in vitro phosphorylation (% of best substrate) [20]: 46
in vitro phosphorylation (% of best substrate) [21]: 22
in vitro phosphorylation (% of best substrate) [22]: 65
in vitro phosphorylation, 1 uM peptide (% of best substrate) [23]: 31
in vitro phosphorylation, 10 uM peptide (% of best substrate) [23]: 30
in vitro phosphorylation, 1 uM peptide (% of best substrate) [24]: 20
in vitro phosphorylation, 10 uM peptide (% of best substrate) [24]: 69
in vitro phosphorylation, 1 uM peptide (% of best substrate) [25]: 16
in vitro phosphorylation, 10 uM peptide (% of best substrate) [25]: 14
in vitro phosphorylation, 1 uM peptide (% of best substrate) [26]: 89
in vitro phosphorylation, 10 uM peptide (% of best substrate) [26]: 77
in vitro phosphorylation, 1 uM peptide (% of best substrate) [27]: 84
in vitro phosphorylation, 10 uM peptide (% of best substrate) [27]: 78
in vitro phosphorylation, 1 uM peptide (% of best substrate) [28]: 25
in vitro phosphorylation, 10 uM peptide (% of best substrate) [28]: 27
in vitro phosphorylation, 1 uM peptide (% of best substrate) [29]: 33
in vitro phosphorylation, 10 uM peptide (% of best substrate) [29]: 34
in vitro phosphorylation, 1 uM peptide (% of best substrate) [30]: 46
in vitro phosphorylation, 10 uM peptide (% of best substrate) [30]: 45
in vitro phosphorylation, 1 uM peptide (% of best substrate) [31]: 51
in vitro phosphorylation, 10 uM peptide (% of best substrate) [31]: 51
